Measurements from publication PMC10044823, “Defensin Interactions in Relation to Monoclonal and Disease-Related Proteinase 3 Antibodies Binding at the Catalytic Site” (Antibodies, 2023).

B1: 172-03 (antibody, V domains shown)
VH: QVQLQQAGAELVKPGASVKLSCKASGYTFTNYWMHWVKQRPGQGLEWIGEINPTNGGINYNEEFIKKATLTADKSSNTAYMQLSGLTSEDSAVYFCLIEIMTGEGYWGQGTSLTVSS
VL: DILMTQSPSSLTVSAGEKVTMSCKSSQNLLVSGNQNNYLAWHQQKPGRSPKMLIIWASTRVSGVPDRFIGSGSGTDFTLTINSVQAEDLAVYYCQQSFSAPLTFGAGTKLELK
B2: PR3 MAb HYB 172-01 (antibody, V domains shown)
VH: EVQLEQSGGDLVKPGGSLKLSCAASGFTFSTYGMSWVRQTPDKRLEWVATFVSGGSYNYYPDSVKGRFAISRDNAKNALYLQMSSLKSEDTAMYYCVRRGASYDALDYWGQGTSVTVSS
VL: SIVMTQTPKFLLVSAGDRITITCKASQSVSNDVAWYQQKPGQSPKLLIYYASNRYTGVPDRFTGSGYGTDFTFTISTVQAEDLAVYFCQQDYSSPFTFGSGTKLEIK
notes: Mouse IgG1,κ (clone 6A6); raised against a Triton X-100 extract of purified neutrophil granulocyte alpha-granules; also called clone 6A6; source: mouse hybridoma, produced in-house
B3: PR3 MAb HYB 172-04 (antibody, V domains shown)
VH: EVKLEQSGPDLVKPGASVKISCKASGYSFTGYYLHWVKQSHGKSLEWIGRVNPNNDITTYNQKFKDKAILTVDKSSSTAYMEFRSLTSEDSAVYYCAGGGNALDYWGQGTSVTVSS
VL: EIVLTQSPAIMSASLGEEITLTCSASSSVSYMHWYQQKSGTSPKLLIYSTSNLASGVPSRFSGSGSGTFYSLTISSVEAEDAADYYCHQWSSYGTFGGGTKLEIK
notes: Mouse IgG2a,κ (clone 4A3); also called clone 4A3; source: mouse hybridoma, produced in-house
B4: PR3 MAb HYB 172-05 (antibody, V domains shown)
VH: EVQLQQSGPDLVKPGASVKISCKASGYSFTGYYLHWVKQSHGKSLEWIGRVNPNNDITTYNQKFKDKAILTVDKSSSTAYMEFRSLTSEDSAVYYCAGGGNALDYWGQGTSVTVSS
VL: RIVMTQTPKFLLVSAGDRVTITCKASQSVSNNVGWYQQKTGQSPKLLIYYASNRYTGVPDRFTGSGYGTDFTFTISTVQAEDLAVYFCQQDYNSPYTFGGGTKLEIK
notes: Mouse IgG2a,κ (clone 4A5); also called clone 4A5; source: mouse hybridoma, produced in-house
B5: Proteinase 3 purified in-house from human neutrophil granulocytes (SSI PR3) (enzyme, UniProt P24158 28-248, looked up)
chain: IVGGHEAQPHSRPYMASLQMRGNPGSHFCGGTLIHPSFVLTAAHCLRDIPQRLVNVVLGAHNVRTQEPTQQHFSVAQVFLNNYDAENKLNDVLLIQLSSPANLSASVATVQLPQQDQPVPHGTQCLAMGWGRVGAHDPPAQVLQELNVTVVTFFCRPHNICTFVPRRKAGICFGDSGGPLICDGIIQGIDSFVIWGCATRLFPDFFTRVALYVDWIRSTLR
modifications: small N-linked glycans on Asn102 and 147; none, one or two alpha-defensins covalently attached to the glycans
notes: proteinase 3, human, active mature enzyme purified from neutrophil granulocytes; The preparation carries on average 5-6 associated alpha-defensins per PR3 (mostly non-covalent); proteolytically active; also called PR3 (SSI); native PR3 complex
B6: Proteinase 3 from Wieslab/Eurodiagnostica (Wieslab PR3) (enzyme, human, UniProt P24158 28-248, looked up)
chain: IVGGHEAQPHSRPYMASLQMRGNPGSHFCGGTLIHPSFVLTAAHCLRDIPQRLVNVVLGAHNVRTQEPTQQHFSVAQVFLNNYDAENKLNDVLLIQLSSPANLSASVATVQLPQQDQPVPHGTQCLAMGWGRVGAHDPPAQVLQELNVTVVTFFCRPHNICTFVPRRKAGICFGDSGGPLICDGIIQGIDSFVIWGCATRLFPDFFTRVALYVDWIRSTLR
modifications: small N-linked glycans on Asn102 and 147; none, one or two alpha-defensins covalently attached to the glycans
notes: proteinase 3, human, commercial preparation; The preparation carries on average 5-6 associated alpha-defensins per PR3; proteolytically active; also called PR3 (Wieslab); source: bought: Wieslab/Eurodiagnostica
B7: Proteinase 3 from Arotec (Arotec PR3) (enzyme, human, UniProt P24158 28-248, looked up)
chain: IVGGHEAQPHSRPYMASLQMRGNPGSHFCGGTLIHPSFVLTAAHCLRDIPQRLVNVVLGAHNVRTQEPTQQHFSVAQVFLNNYDAENKLNDVLLIQLSSPANLSASVATVQLPQQDQPVPHGTQCLAMGWGRVGAHDPPAQVLQELNVTVVTFFCRPHNICTFVPRRKAGICFGDSGGPLICDGIIQGIDSFVIWGCATRLFPDFFTRVALYVDWIRSTLR
modifications: small N-linked glycans on Asn102 and 147; none, one or two alpha-defensins covalently attached to the glycans
notes: proteinase 3, human, commercial preparation; On average 1-2 associated defensins per PR3; source: bought: Arotec

Legend:
[1] = biological target: T1, Proteinase 3 purified in-house from human neutrophil granulocytes (SSI PR3) (human, UniProt P24158, small N-linked glycans on Asn102 and 147; none, one or two alpha-defensins covalently attached to the glycans)
[2] = biological target: T1, Proteinase 3 purified in-house from …; test: SPR; Biacore 1000, CM5 chip, SSI PR3 immobilised by amine coupling (1287 RU); MAb (whole IgG) injected at 0.1 and 0.4 µg/mL, 25 °C, HBS-E pH 7.4 (10 mM HEPES, 3 mM EDTA, 150 mM NaCl); Langmuir or drifting baseline fit; 'pseudo-affinity/avidity' constants (apparent); details: both partners purified
[3] = biological target: T1, Proteinase 3 purified in-house from …; test: ELISA; elution assays with buffers of different pH: pH at which the MAb dissociated from PR3; details: both partners purified
[4] = biological target: T2, PR3 peptide 17 (Homo sapiens, UniProt P24158); test: ELISA; synthetic 20-mer PR3 peptides coupled by an N-terminal cysteine to CovaLink-NH plates; MAb in solution; corrected by non-coated wells; details: both partners purified
T2 construct: By the stated scheme this would be residues 161-180 of mature PR3; source: synthetic peptide (Schäfer-N); not shown: cysteine, N-terminal, kept
T2 chain: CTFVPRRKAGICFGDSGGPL

[5] = biological target: T3, PR3 peptide 2 (Homo sapiens, UniProt P24158); test: as above; details: both partners purified
T3 construct: By the stated scheme this would be residues 11-30 of mature PR3; source: synthetic peptide (Schäfer-N); not shown: cysteine, N-terminal, kept
T3 chain: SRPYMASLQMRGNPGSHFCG

[6] = biological target: T4, PR3 peptide 3 (Homo sapiens, UniProt P24158); test: as above; details: both partners purified
T4 construct: By the stated scheme this would be residues 21-40 of mature PR3; source: synthetic peptide (Schäfer-N); not shown: cysteine, N-terminal, kept
T4 chain: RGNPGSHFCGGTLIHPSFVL

[7] = biological target: T5, PR3 peptide 1 (Homo sapiens, UniProt P24158); test: as above; details: both partners purified
T5 construct: By the stated scheme (20-mers, overlap 10, from the mature N-terminus) this would be residues 1-20 of mature PR3; Coupled to CovaLink-NH plates by the extra N-terminal cysteine; source: synthetic peptide (Schäfer-N); not shown: cysteine, N-terminal, kept
T5 chain: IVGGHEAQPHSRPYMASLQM

[8] = biological target: T6, PR3 peptide 7 (Homo sapiens, UniProt P24158); test: as above; details: both partners purified
T6 construct: By the stated scheme this would be residues 61-80 of mature PR3; source: synthetic peptide (Schäfer-N); not shown: cysteine, N-terminal, kept
T6 chain: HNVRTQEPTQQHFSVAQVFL

[9] = biological target: T7, PR3 peptide 16 (Homo sapiens, UniProt P24158); test: as above; details: both partners purified
T7 construct: By the stated scheme this would be residues 151-170 of mature PR3; source: synthetic peptide (Schäfer-N); not shown: cysteine, N-terminal, kept
T7 chain: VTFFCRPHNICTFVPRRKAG

[10] = biological target: T8, PR3 peptide 20 (Homo sapiens, UniProt P24158); test: as above; details: both partners purified
T8 construct: source: synthetic peptide (Schäfer-N); not shown: cysteine, N-terminal, kept
T8 chain: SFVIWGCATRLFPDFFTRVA

[11] = biological target: T9, human α1-antitrypsin (human, UniProt P01009 25-418); test: ELISA + other: SDS-PAGE; α1-AT binding of the PR3 preparations, 'Determined by ELISA and/or SDS-PAGE'; details: both partners purified
T9 construct: also called AT; α1-AT; source: bought: Calbiochem, Merck
T9 sequence (P01009 25-418): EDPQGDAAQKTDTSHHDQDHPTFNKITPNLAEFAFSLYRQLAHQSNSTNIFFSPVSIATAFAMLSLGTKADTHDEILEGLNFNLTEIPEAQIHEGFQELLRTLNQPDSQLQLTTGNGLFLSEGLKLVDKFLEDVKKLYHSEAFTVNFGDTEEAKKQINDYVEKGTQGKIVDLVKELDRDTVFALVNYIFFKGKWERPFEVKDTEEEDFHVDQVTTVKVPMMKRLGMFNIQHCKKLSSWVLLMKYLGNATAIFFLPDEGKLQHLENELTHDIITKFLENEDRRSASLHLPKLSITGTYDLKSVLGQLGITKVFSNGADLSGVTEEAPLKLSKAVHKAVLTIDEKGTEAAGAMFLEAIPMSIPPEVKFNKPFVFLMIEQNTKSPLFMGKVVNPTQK

Row | Binder | Ka [2] [M⁻¹] | koff [2] [s⁻¹] | kon [2] [M⁻¹ s⁻¹] | Elution pH (High) [3] [pH] | Elution pH (Low) [3] [pH] | binding result [4] | binding result [11] | also measured
1 | B1 |  |  |  |  |  |  |  | binding result [1]: binds
2 | B2 | 5.23e+13 | 5.21e-08 | 2.72e+06 | 12 | 4 | binds |  | Kd [2]: 0.0191 pM
3 | B3 | 1.8e+10 | 0.000571 | 1.03e+07 | 12 | 2 | binds |  | Kd [2]: 55.5 pM; binding result [5]: binds; binding result [6]: binds; binding result [7]: binds; binding result [8]: binds; binding result [9]: binds; binding result [10]: binds
4 | B4 | 1.81e+11 | 6.84e-05 | 1.24e+07 | 12 | 2 | binds |  | 
5 | B5 |  |  |  |  |  |  | binds | 
6 | B6 |  |  |  |  |  |  | binds | 
7 | B7 |  |  |  |  |  |  | binds | 
